Assays:
mPD1-G1CH2 [1] = molecular target: T1, mPD1-G1CH2 (mouse); assay: competition ELISA: mPD1-G1CH2 coated on the plate, mPDL1-G1dCH2His (55 nM) as the blocked ligand; 0, 1, 10 and 100 uM ATP (curves overlap)
T1 construct: Whole entry named; also called Fc-fused murine PD1

mPD1-G1CH2 [2] = molecular target: T1, mPD1-G1CH2; assay: as above; remark: listed apart in the source
mPD1-G1CH2 [3] = molecular target: T1, mPD1-G1CH2; assay: competition ELISA: mPD1-G1CH2 coated on the plate, mPDL1-G1dCH2His (55 nM) as the blocked ligand; 1, 10 and 100 uM ATP (curves overlap)
hCD137.2.4-F.G1d = molecular target: T2, hCD137.2.4-F.G1d (human); assay: ELISA; 500 uM kynurenine, Ab 10 ug/mL
T2 construct: Portion of the human CD137 extracellular region linked to an antibody constant region

hCD137.2.3-F.G1d = molecular target: T3, hCD137.2.3-F.G1d (human); assay: ELISA; 500 uM kynurenine, Ab 10 ug/mL
T3 construct: Portion of the human CD137 extracellular region linked to an antibody constant region

[4] = molecular target: T4, Biotinylated Fc-fused monkey CD137 (monkey, biotin on the AviTag); assay: ELISA; 500 uM kynurenine, Ab 10 ug/mL
T4 construct: Monkey CD137 extracellular region, antibody constant region and Avitag; whole entry named; also called cyCD137-Fc-BAP

hCD137.3.4-F.G1d = molecular target: T5, hCD137.3.4-F.G1d (human); assay: ELISA; 500 uM kynurenine, Ab 10 ug/mL
T5 construct: Portion of the human CD137 extracellular region linked to an antibody constant region

hCD137.1.2-F.G1d = molecular target: T6, hCD137.1.2-F.G1d (human); assay: ELISA; 500 uM kynurenine, Ab 10 ug/mL
T6 construct: Portion of the human CD137 extracellular region linked to an antibody constant region

hCD137.1-F-G1d = molecular target: T7, hCD137.1-F-G1d (human); assay: ELISA; 500 uM kynurenine, Ab 10 ug/mL
T7 construct: Portion of the human CD137 extracellular region linked to an antibody constant region

hIL6R [5] = molecular target: T8, hIL6R (human, UniProt P08887 20-357); assay: SPR 37C, mean; ATP 1 uM
T8 construct: Purified from culture supernatant of a CHO line; whole entry named; also called human interleukin 6 receptor (purified antigen from hIL6R-CHO supernatant)
T8 sequence: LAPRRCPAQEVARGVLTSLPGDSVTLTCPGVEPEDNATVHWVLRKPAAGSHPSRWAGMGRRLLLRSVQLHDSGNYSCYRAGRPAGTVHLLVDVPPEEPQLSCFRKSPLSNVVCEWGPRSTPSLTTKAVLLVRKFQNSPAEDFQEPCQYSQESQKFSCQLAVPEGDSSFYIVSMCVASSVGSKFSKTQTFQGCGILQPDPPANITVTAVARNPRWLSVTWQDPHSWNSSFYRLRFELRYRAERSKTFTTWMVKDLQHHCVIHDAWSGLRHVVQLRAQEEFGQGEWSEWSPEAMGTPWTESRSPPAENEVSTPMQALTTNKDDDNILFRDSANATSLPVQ

hIL6R [6] = molecular target: T8, hIL6R; assay: SPR 37C; ADP 100 uM
hIL6R [7] = molecular target: T8, hIL6R; assay: SPR 37C, mean; ATP 100 uM
hIL6R [8] = molecular target: T8, hIL6R; assay: SPR 37C; ADP 10 uM
hIL6R [9] = molecular target: T8, hIL6R; assay: SPR 37C; AMP 100 uM
hIL6R [10] = molecular target: T8, hIL6R; assay: SPR 37C, mean; ATP 10 uM
hIL6R [11] = molecular target: T8, hIL6R; assay: SPR 37C; AMP 10 uM
hIL6R [12] = molecular target: T8, hIL6R; assay: SPR 37C, mean; ATP 100 uM; ATP 100 uM; mean
hCD137(FXa digested) [13] = molecular target: T9, hCD137(FXa digested) (human, UniProt Q07011 24-186); assay: SPR 37C; ATP 100 uM
T9 construct: also called human CD137 extracellular domain

hCD137(FXa digested) [14] = molecular target: T9, hCD137(FXa digested); assay: SPR 37C; no ATP
hCD137(FXa digested) [15] = molecular target: T9, hCD137(FXa digested); assay: SPR 37C; ATP 1 uM
hCD137(FXa digested) [16] = molecular target: T9, hCD137(FXa digested); assay: SPR 37C; ATP 10 uM

B1: mPD1F2VH-mF18/mPD1F2VL-mk1 (antibody, mouse IgG1, kappa, V domains shown)
VH: EVQLVQSGGGVVQPGRSLRLSCAASGFTFSSYWMSWVRQAPGKGLEWVSAISGSGGSTYYADSVKGRFTISRDNSKNTLYLQMNSLRAEDTAVYYCAKENWGSYFDLWGQGTTVTVSS
VL: DIVMTQSPSTLSASVGDRVTITCRASQGISSWLAWYQQKPGRAPKVLIYKASTLESGVPSRFSGSGSGTDFTLTISSLQPEDFATYYCQQSYSTPWTFGQGTKLEIKR
notes: Control anti-PD1 antibody; also called mPD1F2VH-mF18/mPD1F2VL-mkl
- IC50 (read off the curve) (mPD1-G1CH2 [1]): ~0.6 µg/mL
- IC50 (read off the curve) (mPD1-G1CH2 [2]): ~0.6 µg/mL

B2: H5041-mFa31/L3023-ml0 (antibody, mouse IgG2a, V domains shown)
VH: EVQLVESGGGLVKPGGSLRLSCAASGFTFNTYTMHWVRQAPGKGLEWVSSISSSSKHIYYADSVKGRFTISRDNAKNSLYLQMNSLRAEDTAVYYCARYGRPWELLWVLDYWGQGTLVTVSS
VL: QSALTQPPSASGSPGQTVTISCTGTSTPSGAYDYVSWYQQHPGKAPKLMIYQVSKRPSGVPDRFSGSKSGNTASLTVSGLQAEDEADYFCSTTNSAWDPDFGGGTKLTVLQ
notes: the text of the results names L3021
- IC50 (read off the curve) (mPD1-G1CH2 [3]): ~0.8 µg/mL

B3: dBBK054-P253 (antibody, human IgG1, kappa, V domains shown)
VH: QVQLVQSGAEVKKPGSSVKVSCKASGGWFSYYMISWVRQAPGQGLEWMGVIVPINGAAQYAQKFQGRVTITADESTSTAYMELSSLRSEDTAVYYCARDRPVWRTPRGAFDIWGQGTLVTVSS
VL: DIVMTQSPLSLPVTPGEPASISCRSSQSLVDSNMNTFLSWYLQKPGQSPQLLIYEIQHRFYGVPDRFSGSGSGTDFTLKISRVEAEDVGVYYCMQAMGFPRTFGQGTKVEIKR
- absorbance ratio (hCD137.2.4-F.G1d): 1.3
- absorbance ratio (hCD137.2.3-F.G1d): 1.1
- absorbance ratio [4]: 1.1
- absorbance ratio (hCD137.3.4-F.G1d): 1.3

B4: dBBK102-P253 (antibody, human IgG1, kappa, V domains shown)
VH: QVQLVQSGAEVKKPGSSVKVSCKASGGAFSYYLISWVRQAPGQGLEWMGFVDPIRGGAFYAQKFQGRVTITADESTSTAYMELSSLRSEDTAVYYCARDRPVNAAPRGAFDIWGQGTLVTVSS
VL: DIVMTQSPLSLPVTPGEPASISCRSSQSLVWNDRNTFLSWYLQKPGQSPQLLIYEIRKRFYGVPDRFSGSGSGTDFTLKISRVEAEDVGVYYCMQAQDFPRTFGQGTKVEIKR
- absorbance ratio (hCD137.2.4-F.G1d): 1.1
- absorbance ratio (hCD137.2.3-F.G1d): 1.1
- absorbance ratio (hCD137.1.2-F.G1d): 1.2
- absorbance ratio (hCD137.1-F-G1d): 1.2
- absorbance ratio (hCD137.3.4-F.G1d): 1.1

B5: H0052-G4T1/L1083-lam1 (antibody, human IgG4 S228P, lambda, V domains shown)
VH: EVQLVESGGDLVKPGGGLRLSCAASGFTFSSYTMNWVRQAPGKGLEWVSSISSRSYHIYYADSVDGRFTISRDNAKNSLYLQMNSLRAEDTAVYYCARYGKLYSLNWVFDYWGQGTLVTVSS
VL: QSALTQPPSASGSPGQTVTISCTGTSTDVGDYAYVSWYQQHPGKAPKLMIYYVDKKPSGVPDRFSGSKSGNTASLTVSGLQAEDEADYFCSLRSPGPYPLFGGGTKLTVLG
- Kd (hIL6R [5]): 1450 nM
- Kd (hIL6R [6]): 10.1 nM
- Kd (hIL6R [7]): 8.31 nM
- Kd (hIL6R [8]): 58.1 nM
- Kd (hIL6R [9]): 118 nM
- Kd (hIL6R [10]): 50.5 nM
- Kd (hIL6R [11]): 6640 nM

B6: H0002-G4T1/L1058-lam1 (antibody, human IgG4 S228P, lambda, V domains shown)
VH: EVQLVESGGDLVKPGGGLRLSCAASGFTFSSYTMNWVRQAPGKGLEWVSSISSRSYHAYYADSVKGRFTISRDNAKNSLYLQMNSLRAEDTAVYYCARYGKLYSLNWVFDYWGQGTLVTVSS
VL: QSALTQPPSASGSPGQTVTISCTGTSTDVGDYNYVSWYQQHPGKAPKLMIYEVVKKPSGVPDRFSGSKSGNTASLTVSGLQAEDEADYFCSLRSAGPYPLFGGGTKLTVLG
- Kd (hIL6R [12]): 1160 nM

B7: 20H4.9-MB110/20H4.9LC-mk0 (antibody, mouse IgG1, kappa)
heavy: QVQLQQWGAGLLKPSETLSLTCAVYGGSFSGYYWSWIRQSPEKGLEWIGEINHGGYVTYNPSLESRVTISVDTSKNQFSLKLSSVTAADTAVYYCARDYGPGNYDWYFDLWGRGTLVTVSSAKTTPPSVYPLAPGSAAQTNSMVTLGCLVKGYFPEPVTVTWNSGSLSSGVHTFPAVLQSDLYTLSSSVTVPSSTWPSETVTCNVAHPASSTKVDKKIVPRDCGCKPCICTVPEVSDVFIFPPKPKDVLTITLTPKVTCVVVDISKDDPEVQFSWFVDDVEVHTAQTQPREEQFNSTFRSVSELPIMHQDWLNGKEFKCRVNSAAFPAPIEKTISKTKGRPKAPQVYTIPPPKEQMAKDKVSLTCMITDFFPEDITVEWQWNGQPAENYKNTQPIMDTDGSYFVYSKLNVQKSNWEAGNTFTCSVLHEGLHNHHTEKSLSHSPGK
light: EIVLTQSPATLSLSPGERATLSCRASQSVSSYLAWYQQKPGQAPRLLIYDASNRATGIPARFSGSGSGTDFTLTISSLEPEDFAVYYCQQRSNWPPALTFGGGTKVEIKRADAAPTVSIFPPSSEQLTSGGASVVCFLNNFYPKDINVKWKIDGSERQNGVLNSWTDQDSKDSTYSMSSTLTLTKDEYERHNSYTCEATHKTSTSPIVKSFNRNEC
notes: also called NS1-MB110
- Kd (hCD137(FXa digested) [13]): 51.9 nM
- Kd (hCD137(FXa digested) [14]): 61 nM
- Kd (hCD137(FXa digested) [15]): 56.5 nM
- Kd (hCD137(FXa digested) [16]): 53.9 nM

B8: 20H4.9-MB492/20H4.9LC-mk0 (antibody, mouse IgG1, kappa)
heavy: QVQLQQWGAGLLKPSETLSLTCAVYGGSFSGYYWSWIRQSPEKGLEWIGEINHGGYVTYNPSLESRVTISVDTSKNQFSLKLSSVTAADTAVYYCARDYGPGNYDWYFDLWGRGTLVTVSSAKTTPPSVYPLAPGSAAQTNSMVTLGCLVKGYFPEPVTVTWNSGSLSSGVHTFPAVLQSDLYTLSSSVTVPSSTWPSETVTCNVAHPASSTKVDKKIVPRDCGCKPCICEPNEVEDVFIFPPKPKDVLTITLTPKVTCVVVDISKDDPEVQFSWFVDDVEVHTAQTQPREEQFNSTFRSVSELPIMHQDWLNGKEFKCRVDSAAFPAPIEKTISKTKGRPKAPQVYTIPPPKEQMAKDKVSLTCMITDFFPEDITVEWQWNGQPAENYKNTQPIMDTDGSYFVYSKLNVQKSNWEAGNTFTCSVLHEGLHNHHTEKSLSHSPGK
light: EIVLTQSPATLSLSPGERATLSCRASQSVSSYLAWYQQKPGQAPRLLIYDASNRATGIPARFSGSGSGTDFTLTISSLEPEDFAVYYCQQRSNWPPALTFGGGTKVEIKRADAAPTVSIFPPSSEQLTSGGASVVCFLNNFYPKDINVKWKIDGSERQNGVLNSWTDQDSKDSTYSMSSTLTLTKDEYERHNSYTCEATHKTSTSPIVKSFNRNEC
notes: also called NS1-MB492
- Kd (hCD137(FXa digested) [13]): 50.4 nM
- Kd (hCD137(FXa digested) [14]): 61.6 nM
- Kd (hCD137(FXa digested) [15]): 54.9 nM
- Kd (hCD137(FXa digested) [16]): 53.5 nM

B9: 20H4.9-mIgG1/20H4.9LC-mk0 (antibody)
heavy: QVQLQQWGAGLLKPSETLSLTCAVYGGSFSGYYWSWIRQSPEKGLEWIGEINHGGYVTYNPSLESRVTISVDTSKNQFSLKLSSVTAADTAVYYCARDYGPGNYDWYFDLWGRGTLVTVSSAKTTPPSVYPLAPGSAAQTNSMVTLGCLVKGYFPEPVTVTWNSGSLSSGVHTFPAVLQSDLYTLSSSVTVPSSTWPSETVTCNVAHPASSTKVDKKIVPRDCGCKPCICTVPEVSSVFIFPPKPKDVLTITLTPKVTCVVVDISKDDPEVQFSWFVDDVEVHTAQTQPREEQFNSTFRSVSELPIMHQDWLNGKEFKCRVNSAAFPAPIEKTISKTKGRPKAPQVYTIPPPKEQMAKDKVSLTCMITDFFPEDITVEWQWNGQPAENYKNTQPIMDTDGSYFVYSKLNVQKSNWEAGNTFTCSVLHEGLHNHHTEKSLSHSPGK
light: EIVLTQSPATLSLSPGERATLSCRASQSVSSYLAWYQQKPGQAPRLLIYDASNRATGIPARFSGSGSGTDFTLTISSLEPEDFAVYYCQQRSNWPPALTFGGGTKVEIKRADAAPTVSIFPPSSEQLTSGGASVVCFLNNFYPKDINVKWKIDGSERQNGVLNSWTDQDSKDSTYSMSSTLTLTKDEYERHNSYTCEATHKTSTSPIVKSFNRNEC
notes: also called NS1-mIgG1
- Kd (hCD137(FXa digested) [13]): 53.6 nM
- Kd (hCD137(FXa digested) [14]): 61.7 nM
- Kd (hCD137(FXa digested) [15]): 56.2 nM
- Kd (hCD137(FXa digested) [16]): 54.4 nM
